Measurements reported in patent US20240239881A1 (Innovent, published 2024).

B1: chimeric antibody 86E9 (antibody, human IgG1, kappa)
heavy: not shown
light: DIVMTQSHKFLSTSVGARVSITCKASQDVGTDVAWYQQKPGQSPKLLIYWASTRHTGVPDRFTGSGSGTDFTLTISNVQSEDLSDYFCQQYSSYPLTFGGGTKLEIKRTVAAPSVFIFPPSDEQLKSGTASVVCLLNNFYPREAKVQWKVDNALQSGNSQESVTEQDSKDSTYSLSSTLTLSKADYEKHKVYACEVTHQGLSSPVTKSFNRGEC
B2: chimeric antibody 81H10 (antibody, human IgG1, kappa, V domains shown)
VH: EVKLEESGGGLVQPGGSMKLSCVASGFTFSNYWMNWVRQSPEKGLEWVAEIRLKSNNYATHYAESVKGRFTISRDVSKSSVYLQMNNLRTEDTGIYYCTDTAPFAYWGQGTLVTVSA
VL: DIVMTQSHKFMSTSVGDRVSITCKASQDVGTDVAWYQQKPGQSPKLLIYWASTRHTGVPDRFTGSGSGTDFTLTISNVQSEDLSDYFCQQYSSYPLTFGGGTKLEIKR
B3: chimeric antibody 107H7 (antibody, human IgG1, kappa)
heavy: not shown
light: DIVMTQTPKFLSTSVGARVSITCKASQDVGTDVAWYQQKPGQSPKLLIYWASTRHTGVPDRFTGSGSGTDFTLTISNVQSEDLSDYFCQQYSSYPLTFGGGTKLEIKRTVAAPSVFIFPPSDEQLKSGTASVVCLLNNFYPREAKVQWKVDNALQSGNSQESVTEQDSKDSTYSLSSTLTLSKADYEKHKVYACEVTHQGLSSPVTKSFNRGEC
B4: affinity matured antibody Amhz81H10.4.30 (antibody, human IgG1, kappa, V domains shown)
VH: EVQLVESGGGLVKPGGSLRLSCAASGFTFRAAWMNWVRQAPGKGLEWVAEIRLKSNHYETHYAESVKGRFTISRDVSKNTVYLQMNSLKTEDTAVYYCTDTQPGAYWGQGTLVTVSS
VL: DIQMTQSPSSLSASVGDRVTITCKASQYVFTDVAWYQQKPGKAPKLLIYWASTRWTGVPSRFSGSGSGTDFTLTISSLQPEDFATYYCQQTSSYPLTFGGGTKVEIKR
B5: affinity matured antibody Amhz81H10.4.49 (antibody, human IgG1, kappa, V domains shown)
VH: EVQLVESGGGLVKPGGSLRLSCAASGFTFQNYWANWVRQAPGKGLEWVAEIRLKSNNYATHYAESVKGRFTISRDVSKNTVYLQMNSLKTEDTAVYYCTDTTPAAYWGQGTLVTVSS
VL: DIQMTQSPSSLSASVGDRVTITCKASQDVWTDVAWYQQKPGKAPKLLIYWGSTRWTGVPSRFSGSGSGTDFTLTISSLQPEDFATYYCQQTNIYPLTFGGGTKVEIKR
notes: also called Am81H10.4.49
B6: parental murine hybridoma antibody of chimeric antibody 86E9 (antibody, V domains shown)
VH: EVMLVESGGGLVQPGGSMKLSCVASGFTFSNYWMNWVRQSPEKGLEWVAEIRLKSNNYATHYAESVKGRFTISRDVSKSGVYLQMNNLRTEDTGIYYCTDTAPFAYWGQGTLVTVSA
VL: DIVMTQSHKFLSTSVGARVSITCKASQDVGTDVAWYQQKPGQSPKLLIYWASTRHTGVPDRFTGSGSGTDFTLTISNVQSEDLSDYFCQQYSSYPLTFGGGTKLEIK
notes: Murine antibody from the hybridoma; also called 86E9 (murine hybridoma antibody)
B7: parental murine hybridoma antibody of chimeric antibody 107H7 (antibody, V domains shown)
VH: EVMLVESGGGLVQPGGSMKLSCVASGFTFSNYWMNWVRQSPEKGLEWVAEIRLKSNNYATHYAESVKGRFTISRDVSKSGVYLQMNNLRTEDTGIYYCTDTAPFAYWGQGTLVTVSA
VL: DIVMTQTPKFLSTSVGARVSITCKASQDVGTDVAWYQQKPGQSPKLLIYWASTRHTGVPDRFTGSGSGTDFTLTISNVQSEDLSDYFCQQYSSYPLTFGGGTKLEIK
notes: Murine antibody from the hybridoma; also called 107H7 (murine hybridoma antibody)
B8: parental murine hybridoma antibody of chimeric antibody 81H10 (antibody, V domains shown)
VH: EVKLEESGGGLVQPGGSMKLSCVASGFTFSNYWMNWVRQSPEKGLEWVAEIRLKSNNYATHYAESVKGRFTISRDVSKSSVYLQMNNLRTEDTGIYYCTDTAPFAYWGQGTLVTVSA
VL: DIVMTQSHKFMSTSVGDRVSITCKASQDVGTDVAWYQQKPGQSPKLLIYWASTRHTGVPDRFTGSGSGTDFTLTISNVQSEDLSDYFCQQYSSYPLTFGGGTKLEIK
notes: Murine antibody from the hybridoma; also called 81H10 (murine hybridoma antibody)

Experiments:
[1] = biological target: T1, recombinant biotinylated hAngiopoietin-2 protein (R&D, Cat. No.: BT623B/CF) (human, UniProt O15123 19-496, limits assumed, biotinylated (sites not given)); experiment: blocking ELISA: antibody titrated against biotinylated hAng2 (300 ng/ml final); blocked binding to coated hTie2 protein; Avidin-HRP detection
T1 construct: Bought protein; also called Biotin Ang2; human biotin Ang2 protein
T1 sequence: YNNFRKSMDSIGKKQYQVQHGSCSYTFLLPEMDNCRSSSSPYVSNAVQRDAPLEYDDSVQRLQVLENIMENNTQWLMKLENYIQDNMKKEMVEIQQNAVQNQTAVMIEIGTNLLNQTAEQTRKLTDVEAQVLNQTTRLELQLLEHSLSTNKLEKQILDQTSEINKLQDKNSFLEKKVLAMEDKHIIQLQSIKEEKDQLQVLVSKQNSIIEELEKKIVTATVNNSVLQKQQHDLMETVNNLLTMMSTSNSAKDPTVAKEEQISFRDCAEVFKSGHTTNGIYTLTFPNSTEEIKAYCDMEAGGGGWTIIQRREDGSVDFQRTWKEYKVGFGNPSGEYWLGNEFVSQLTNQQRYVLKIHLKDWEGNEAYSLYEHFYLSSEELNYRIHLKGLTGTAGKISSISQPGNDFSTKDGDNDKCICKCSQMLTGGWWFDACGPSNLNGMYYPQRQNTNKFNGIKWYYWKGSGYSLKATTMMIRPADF
Description: The abilities of 81H10, 86E9, 107H7, hz81H10.4, Amhz81H10.4.30, Amhz81H10.4.49, and the control antibodies Nesvacumab and faricimab to block the binding of human Ang2 to hTie2 were determined by ELISA. Faricimab is a bispecific antibody drug undergoing a clinical trial and developed by Roche, which targets both angiopoietin-2 (Ang-2) and VEGF-A.
Then the plate was blocked using 5% BSA for 1 h. The biotinylated antigen, recombinant biotinylated hAngiopoietin-2 protein (R&D, Cat. No.: BT623B/CF), was diluted to 600 ng/ml, and was added into the microtiter plate at 50 μl/well. The antibodies (81H10, 86E9, 107H7, hz81H10.4, Amhz81H10.4.30 and Amhz81H10.4.49) prepared as described above were gradiently diluted with a total of 8 or 12 dilution points starting from the highest concentration, and then added to the microtiter plate at 50 μl/well, and incubated in PBS on ice for 30 min. Then, 50 ul of antigen solution was added to the microtiter plate, in which the final antigen concentration was 300 ng/ml. The plate containing the antigen-antibody mixture was incubated for 90 min. After three washes with PBS, the supernatant was discarded, and Avidin-HRP (Invitrogen) diluted at 1:10000 was added at 100 μl/well, then incubated at room temperature for 30 min. PBS was used to wash the plate six times. Then TMB chromogen solution (solarbio) was added at 100 ul/well to allow for chromogenic reaction for 1 min, then the reaction was terminated with the addition of stop solution (solarbio) at 100 ul/well.

human Ang2 = biological target: T2, human Ang2 (human, UniProt O15123 19-496, limits assumed); experiment: ForteBio BLI, antibody on AHQ sensor, 100 nM antigen, 1:1 model
T2 construct: also called hAng2; h Ang2
T2 sequence: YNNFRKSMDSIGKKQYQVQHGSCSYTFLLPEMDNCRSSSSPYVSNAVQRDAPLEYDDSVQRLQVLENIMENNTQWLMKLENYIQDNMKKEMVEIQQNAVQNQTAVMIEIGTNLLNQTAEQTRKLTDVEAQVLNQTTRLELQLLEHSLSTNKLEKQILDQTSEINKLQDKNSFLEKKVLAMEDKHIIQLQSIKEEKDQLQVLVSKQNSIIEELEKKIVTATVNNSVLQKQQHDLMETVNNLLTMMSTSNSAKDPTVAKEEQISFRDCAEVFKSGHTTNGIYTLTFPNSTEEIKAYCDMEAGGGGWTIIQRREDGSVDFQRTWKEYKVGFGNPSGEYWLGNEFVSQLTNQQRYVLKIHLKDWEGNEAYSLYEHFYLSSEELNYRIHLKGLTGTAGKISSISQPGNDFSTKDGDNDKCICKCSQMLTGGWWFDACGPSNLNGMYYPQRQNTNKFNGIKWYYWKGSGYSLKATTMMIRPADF
Description: (§1) The equilibrium dissociation constants (KD) of the above exemplary antibodies of the present invention binding to human Ang2 (h Ang2), cynomolgus monkey Ang2 (cAng2), murine Ang2 (mAng2), and human Ang1 (hAng1) were determined using the biological optical interferometry (ForteBio) assay.
(§2) The ForteBio affinity assay was performed according to the existing method (Estep, P et al., High throughput solution-based measurement of antibody-antigen affinity and epitope binning. MAbs, 2013.5 (2): p. 270-8). Briefly, the sensor was equilibrated in the assay buffer off-line for 30 min, followed by on-line detection for 60 s to establish the baseline. Then the purified antibodies obtained as described above were loaded on-line onto an AHQ sensor (ForteBio) for ForteBio affinity assay. The sensors with loaded antibodies were exposed to 100 nM of hAng2, cAng2, mAng2, and hAng1 antigens for 5 min, and then were transferred into the assay buffer for dissociation for 5 min to determine the dissociation rate. Kinetic analysis was performed using a 1:1 binding model.

Human Ang1 = biological target: T3, Human Ang1 (human, UniProt Q15389 20-498, limits assumed); experiment: ForteBio BLI, antibody on AHQ sensor
T3 construct: also called hAng1
T3 sequence (looked up): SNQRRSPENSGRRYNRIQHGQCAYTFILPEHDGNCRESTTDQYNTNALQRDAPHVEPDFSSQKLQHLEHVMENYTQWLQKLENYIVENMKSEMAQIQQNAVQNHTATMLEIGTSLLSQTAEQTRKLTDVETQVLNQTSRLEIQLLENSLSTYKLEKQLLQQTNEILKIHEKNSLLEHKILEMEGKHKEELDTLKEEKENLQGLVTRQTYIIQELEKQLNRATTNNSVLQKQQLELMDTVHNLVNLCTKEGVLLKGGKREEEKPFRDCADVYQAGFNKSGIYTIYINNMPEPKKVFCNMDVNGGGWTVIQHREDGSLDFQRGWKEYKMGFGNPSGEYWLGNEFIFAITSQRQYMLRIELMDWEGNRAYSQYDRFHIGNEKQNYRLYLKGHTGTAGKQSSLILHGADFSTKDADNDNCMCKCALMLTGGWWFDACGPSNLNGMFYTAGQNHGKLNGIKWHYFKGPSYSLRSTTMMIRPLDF
Description: as §1, §2

[2] = biological target: T1, recombinant biotinylated …; experiment: ELISA: biotin Ang2 (R&D BT623B/CF) captured on coated streptavidin (SA), antibody titrated, anti-human IgG-HRP, OD450-OD620, GraphPad fit
Description: The binding of 81H10 and hz81H10.4 of the present invention to human biotin Ang2 protein was measured in an SA-biotin Ang2-based ELISA assay.
SA protein (Thermo Fisher) was diluted to 1 μg/ml with PBS, and was coated onto a microtiter plate at 100 μl/well at 4° C. overnight. After three washes with PBST, the plate was blocked with 5% BSA for 1 h. Biotin Ang2 (R&D, Cat. No. BT623B/CF) was incubated at a concentration of 0.5 μg/ml for 1 h. Gradient diluted antibodies (maximum concentration 20 nM, 1:3 serial dilution) were added to the microtiter plate and incubated for 2 h, and the plate was washed three times with PBST. […] Then the plate was washed for 6 times with PBST. Chromogenic reaction was performed with 100 ul TMB and terminated with 100 ul 2N sulfuric acid. The reading of OD₄₅₀-OD₆₂₀ was taken by microplate reader. The concentration-dependent curve was fitted with GraphPad based on the OD₄₅₀-OD₆₂₀.

[3] = biological target: T4, Human ang2 protein (Sino Biological, Cat No.: 10691-H08H) (human, UniProt O15123 19-496); experiment: ELISA: human ang2 protein (Sino Biological 10691-H08H) coated at 0.25 ug/ml, antibody titrated, HRP-conjugated secondary antibody, OD450-OD620, GraphPad fit
T4 construct: Bought protein; also called recombinant hAng2; human hAng2
T4 sequence: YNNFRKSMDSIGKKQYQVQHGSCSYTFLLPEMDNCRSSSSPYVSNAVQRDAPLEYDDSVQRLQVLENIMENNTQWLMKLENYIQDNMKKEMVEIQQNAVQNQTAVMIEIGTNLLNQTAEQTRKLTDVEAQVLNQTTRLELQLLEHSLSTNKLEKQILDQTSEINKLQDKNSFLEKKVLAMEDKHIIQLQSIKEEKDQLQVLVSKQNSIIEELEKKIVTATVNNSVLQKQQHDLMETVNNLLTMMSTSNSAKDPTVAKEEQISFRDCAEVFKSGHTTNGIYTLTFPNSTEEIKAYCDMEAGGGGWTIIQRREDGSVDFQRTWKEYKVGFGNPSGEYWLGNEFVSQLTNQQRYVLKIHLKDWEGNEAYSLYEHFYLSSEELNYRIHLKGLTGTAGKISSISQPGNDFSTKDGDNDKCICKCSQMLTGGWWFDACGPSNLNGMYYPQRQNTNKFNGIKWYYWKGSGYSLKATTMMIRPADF
Description: The binding of the respective parental murine hybridoma antibodies of the above exemplary chimeric antibodies 81H10, 86E9, and 107H7 to human hAng2 was measured in an ELISA-based assay.
Human ang2 protein (Sino Biological, Cat No.: 10691-H08H) was diluted to 0.25 μg/ml with PBS, and was coated onto a microtiter plate at 100 μl/well at 4° C. overnight. After three washes with PBST, the plate was blocked with 5% BSA. Gradient diluted antibodies (maximum concentration 20 nM, 1:2 serial dilution) were added to the microtiter plate and incubated for 2 h. After three washes with PBST, a 1:10000 dilution of anti-mouse IgG, HRP-conjugated antibody (Cell Signaling, Cat. No. 7076P2) was added, and after incubation for 60 min, the plate was washed six times with PBST. Chromogenic reaction was performed with 100 ul TMB and terminated with 100 ul 2N sulfuric acid. The reading of OD₄₅₀-OD₆₂₀ was taken by microplate reader. The concentration-dependent curve was fitted with GraphPad based on the OD₄₅₀-OD₆₂₀.

Binder	IC50 [1]	Kd (human Ang2)	binding result (Human Ang1)	EC50 [2]	EC50 [3]
B1	5.29 nM	7.63 nM	no binding (tested: 100 nM)	–	–
B2	1.32 nM	6.92 nM	no binding (tested: 100 nM)	0.0142 nM	–
B3	9.15 nM	7.75 nM	no binding (tested: 100 nM)	–	–
B4	4.91 nM	23.2 nM	no binding (tested: 100 nM)	–	–
B5	0.506 nM	0.647 nM	no binding (tested: 100 nM)	–	–
B6	–	–	–	–	0.434 nM
B7	–	–	–	–	0.231 nM
B8	–	–	–	–	0.248 nM
